According to patent publication US6562788B1, “Topoisomerase II inhibitor” (Laboratoire L. Lafon, priority 1998, dated 2003):

Experiments:
[1] = target: T1, human topoisomerase II alpha (Homo sapiens, UniProt P11388); experiment: relaxation of supercoiled plasmids, topoisomerase II activity assay; type: biochemical; conditions: peptide concentration of 0.5 μM
From the text: (§1) Two enzymatic assays make it possible to estimate the effect of the pentides on topoisomerase II activity: relaxation of supercoiled plasmids and decatenation of kinetoplast DNA (Wang, J. C., An. Rev. Biochem., 54: 665-697, 1985; Maxwell, A., Advances in Protein Chemistry, 38: 69-107, 1986; Liu, L. F., Cell, 19: 697-707, 1980).

[2] = target: T2, topoisomerase II of yeast (Saccharomyces cerevisiae, UniProt P06786); experiment: as above; type: biochemical; conditions: peptide concentration of 0.5 μM
T2 sequence (P06786 1-1428): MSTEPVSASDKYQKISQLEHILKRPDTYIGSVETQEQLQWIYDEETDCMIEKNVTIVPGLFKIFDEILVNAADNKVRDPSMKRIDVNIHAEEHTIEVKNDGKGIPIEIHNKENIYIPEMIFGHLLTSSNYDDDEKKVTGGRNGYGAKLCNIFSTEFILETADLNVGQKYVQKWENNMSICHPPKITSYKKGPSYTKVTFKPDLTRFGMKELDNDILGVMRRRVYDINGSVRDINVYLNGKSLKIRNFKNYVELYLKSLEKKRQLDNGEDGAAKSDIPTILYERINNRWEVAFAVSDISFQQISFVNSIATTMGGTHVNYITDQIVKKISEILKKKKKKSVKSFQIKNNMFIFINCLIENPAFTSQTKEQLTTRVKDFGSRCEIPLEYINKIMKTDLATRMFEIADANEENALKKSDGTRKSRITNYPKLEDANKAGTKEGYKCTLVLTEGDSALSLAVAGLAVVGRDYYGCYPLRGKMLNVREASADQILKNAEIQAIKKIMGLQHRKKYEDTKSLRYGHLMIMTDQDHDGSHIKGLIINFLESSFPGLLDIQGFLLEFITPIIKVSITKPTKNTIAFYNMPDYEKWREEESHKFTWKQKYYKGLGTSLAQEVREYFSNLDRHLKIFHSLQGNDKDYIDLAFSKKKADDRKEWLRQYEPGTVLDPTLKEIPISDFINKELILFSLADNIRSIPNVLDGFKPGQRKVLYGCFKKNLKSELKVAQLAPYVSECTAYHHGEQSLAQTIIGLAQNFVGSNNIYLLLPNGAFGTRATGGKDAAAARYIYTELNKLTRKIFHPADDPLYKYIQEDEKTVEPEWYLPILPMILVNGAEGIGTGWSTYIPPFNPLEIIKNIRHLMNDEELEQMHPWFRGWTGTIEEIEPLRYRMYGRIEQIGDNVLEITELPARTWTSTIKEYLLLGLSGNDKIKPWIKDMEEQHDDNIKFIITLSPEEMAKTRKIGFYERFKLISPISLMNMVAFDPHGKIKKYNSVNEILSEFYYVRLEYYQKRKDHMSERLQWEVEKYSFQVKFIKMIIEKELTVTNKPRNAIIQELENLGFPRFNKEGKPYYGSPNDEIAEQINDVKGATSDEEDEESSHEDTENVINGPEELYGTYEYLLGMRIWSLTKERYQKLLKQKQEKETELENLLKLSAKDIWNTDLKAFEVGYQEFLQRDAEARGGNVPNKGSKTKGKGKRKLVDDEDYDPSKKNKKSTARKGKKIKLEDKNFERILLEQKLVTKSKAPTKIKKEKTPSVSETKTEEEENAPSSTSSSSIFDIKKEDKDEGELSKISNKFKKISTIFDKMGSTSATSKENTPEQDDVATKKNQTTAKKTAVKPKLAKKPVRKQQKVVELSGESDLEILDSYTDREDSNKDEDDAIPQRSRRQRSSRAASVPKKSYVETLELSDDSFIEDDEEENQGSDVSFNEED
From the text: as §1

[3] = target: T1, human topoisomerase II alpha; experiment: decatenation of kinetoplast DNA, topoisomerase II activity assay; type: biochemical; conditions: peptide concentration of 0.5 μM
From the text: as §1

[4] = target: T2, topoisomerase II of yeast; experiment: as above; type: biochemical; conditions: peptide concentration of 0.5 μM
From the text: as §1

[5] = test system: topoisomerase II; conditions: prior art, literature; cited from earlier work

T1 sequence (P11388 whole entry): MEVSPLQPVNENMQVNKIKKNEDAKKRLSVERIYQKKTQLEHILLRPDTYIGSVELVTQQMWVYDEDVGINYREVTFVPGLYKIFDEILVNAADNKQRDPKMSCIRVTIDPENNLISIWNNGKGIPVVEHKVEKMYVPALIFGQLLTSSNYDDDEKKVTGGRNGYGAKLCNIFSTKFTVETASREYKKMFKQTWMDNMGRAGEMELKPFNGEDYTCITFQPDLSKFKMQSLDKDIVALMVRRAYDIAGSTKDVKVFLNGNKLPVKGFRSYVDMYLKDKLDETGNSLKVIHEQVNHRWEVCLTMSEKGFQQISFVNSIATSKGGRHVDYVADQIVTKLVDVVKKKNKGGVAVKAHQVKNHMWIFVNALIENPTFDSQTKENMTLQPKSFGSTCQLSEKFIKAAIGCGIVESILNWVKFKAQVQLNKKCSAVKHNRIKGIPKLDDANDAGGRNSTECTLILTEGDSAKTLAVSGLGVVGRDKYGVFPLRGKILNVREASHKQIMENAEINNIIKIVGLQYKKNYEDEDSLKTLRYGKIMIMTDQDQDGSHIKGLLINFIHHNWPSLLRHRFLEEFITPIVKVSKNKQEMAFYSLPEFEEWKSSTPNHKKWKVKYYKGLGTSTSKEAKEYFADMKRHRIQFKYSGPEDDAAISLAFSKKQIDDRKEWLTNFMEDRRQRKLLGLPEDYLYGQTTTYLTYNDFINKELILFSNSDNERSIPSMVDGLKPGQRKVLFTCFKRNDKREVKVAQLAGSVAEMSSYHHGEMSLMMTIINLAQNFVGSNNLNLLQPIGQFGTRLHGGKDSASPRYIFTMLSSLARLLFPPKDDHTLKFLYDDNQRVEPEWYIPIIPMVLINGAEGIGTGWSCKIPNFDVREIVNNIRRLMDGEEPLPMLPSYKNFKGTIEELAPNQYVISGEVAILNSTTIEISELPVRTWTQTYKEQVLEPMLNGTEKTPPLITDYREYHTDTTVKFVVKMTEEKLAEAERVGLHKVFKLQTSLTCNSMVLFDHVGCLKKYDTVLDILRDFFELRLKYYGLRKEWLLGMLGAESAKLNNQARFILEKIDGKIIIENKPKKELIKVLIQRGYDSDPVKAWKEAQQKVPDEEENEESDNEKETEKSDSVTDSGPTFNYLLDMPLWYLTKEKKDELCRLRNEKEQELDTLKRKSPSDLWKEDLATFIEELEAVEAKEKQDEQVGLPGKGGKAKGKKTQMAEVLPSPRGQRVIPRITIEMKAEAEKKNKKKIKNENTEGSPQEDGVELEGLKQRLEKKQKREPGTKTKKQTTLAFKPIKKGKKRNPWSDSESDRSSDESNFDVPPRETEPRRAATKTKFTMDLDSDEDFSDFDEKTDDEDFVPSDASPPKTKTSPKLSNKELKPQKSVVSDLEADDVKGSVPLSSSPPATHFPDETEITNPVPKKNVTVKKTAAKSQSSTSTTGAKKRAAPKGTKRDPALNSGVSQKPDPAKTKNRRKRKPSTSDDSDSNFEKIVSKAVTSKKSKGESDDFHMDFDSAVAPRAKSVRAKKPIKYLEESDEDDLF

Substance | inhibition of topoisomerase II activity (relaxation of supercoiled plasmids) [1] | inhibition of topoisomerase II activity (relaxation of supercoiled plasmids) [2] | inhibition of topoisomerase II activity (decatenation of kinetoplast DNA) [3] | inhibition of topoisomerase II activity (decatenation of kinetoplast DNA) [4] | inhibitory activity for topoisomerase II [5]
Thr-Gin-Leu-Asp-Ile-Leu-Arg-Asp-Leu-Phe-Glu-Leu-Arg -Leu-Lys-Tyr-Tyr-Gly-Leu-Arg-Lys-Glu-Phe-Leu-Leu-Gin-Met -Leu-Gly (TQLDILRDLFELRLKYYGLRKEFLLQMLG) [example 1] | totally inhibits | totally inhibits | totally inhibits | totally inhibits | –
sequence 1013 to 1041 of human topoisomerase II alpha: topoisomerase II fragment, corresponding to sequence 1013 to 1041 of human topoisomerase II alpha, described by Frére Gallois et al. | – | – | – | – | inhibitory activity
